# Assay: label from the status in PepcDB records
row,Sequence,protein production
1,TIDSNFQNKVDEILQRNYSQIVKTIGPYSENAYVVAMNPQTGAILAMSGFHHDLATGEVTPNPLAPILNSEVPGSVVKAGTLTAGYETGVIKGNDVLTDEAILLAGSNPKASWWNASGGTTMQLTAEQALEYSSNAYMMKLVFKMMGVNYYPNMIFPYEVGDDTVFKELRKAFAEYGMGTKTGIDIPGETTGIQNKDFKDSSSAPQGGNLLDLSFGQYDTYSALQLAQYVSTVANNGIRVQPHVVEGIYGNDENGALGKILKEIEPKVLNKVNISEDQIGILQQGFYNVVNGTSPFTTARGLKSDKFSIAAKTGTAETQATDANGVNHTTVNSNLVAYAPYENPEIAISVVLPHLNDEASKPNQTIAKEVLEAYMEMYKK,failed
2,TLLLIFSFFVVTIGGLVQIVPLFYLENTIEKVEGVRPYTPLELAGRDIYIREGCYVCHSQMIRPMRDETERYGHYSLAAESMYDHPFQWGSKRTGPDLARVGERYSDEWHVDHLTNPQSVVPESIMPKYGFLSHTVIDGRYIRDLMSVHRIVGVPYSDEMLENAVADFKAQANPDADTDGLLERYGKAAVRNFDGQAELTEMDALISYLQVLGT,failed
3,TMNNEMSDPQIEEFYTIVKELEKFDTFTNFLDVHQPELAIVFGRTKRRVDELTSALISKGYKAEGLHGDITQAKRLEVLKKFKNDQINILVATDVAARGLDISGVSHVYNFDIPQDTESYTHRIGRTGRAGKEGIAVTFVNPIEMDYIRQIEDANGRKMSALRPPHRKEVLQAREDDIKEKVENWMSKESESRLKRISTELLNEYNDVDLVAALLQELVEANDEVEVQLTFEKPLSRKGRNGKPSGSR,failed
4,TNLAALSLDSLVAPDTPIQFDIISPVCEDQPGQAKAFGQGGRRTNPFGESGGSTKSETEDSILHQLFIVRFLGSMEVKSDDHPDVVYETMRQILAARAIHNIFRMTESHLLVTCDCLKLIDPQTQVTRLTFPLPCVVLYATHQENKRLFGFVLRTSSGRSESNLSSVCYIFESNNEGEKICDSVGLAKQIAL,failed
5,TNWASGEDDHVVARAEYDFVAVSDEEISFRAGDMLNLALKEQQPKVRGWLLASLDGQTTGLIPANYVKILGKRRGRKTIE,not failed
6,TPAVVERADADSQYEILVGGQRAGLTAYRDLGAQRVFFHTEIDEAFAGQGLASQLVQQALVDVRASGMRIVPVCPYVAKFLKRHDEFADITDPVTPEVLRW,not failed
7,TRKVLVLDLDNTLWGGVIGDDGIEGIVIGEGSARGEAFKAFQLYCRALRERGILLAVSSKNDPERALAAFDHPEMVLRRSDFAAFVANWEDKGQGLQRIAQELNLGLEALVFFDDNPAERALLREQFPAVAVPEVPEEPETYIRCLAAAGLFEAV,failed
8,TTQNELLNRIAELETKVAFQDNVIEELNQVLIHHQFVLDKLQTQVRHFANKFKNIQSSNVASQAEETPPPHY,failed
9,TTSDNTALFYRHWPTLLPGAKKVIVLFHRGHEHSGRLQHIVDELAMPDTAFYAWDARGHGQTSGPRGYSPSLARSVQDVDEFVRFAASDSQVGLEEVVVIAQSVGAVMVATWVHDYAPAIRGLVLASPAFKVKLYVPLARPGLALWHRLRGLFFINSYVKGRYLTHDRQRVASFNNDPLITRAIAVNILLDLYKTSERIVSDAAAITLPTQLLISGDDYVVHRQPQIDFYQRLRSPLKELHLLPGFYHDTLGEENRAQAFEKMQSFISRLYA,failed
10,TVAVSQIVEHPALDATRQGLLDGLKAKGYEEGKNLEFDYKTAQGNPAIAVQIARQYVGESPDVLVGIATPSAQALVSATRTIPVVFTAVTDPVGAKLVKSMKQPGKNVTGLSDLSPVAQHVELIQEILPQVKSIGVVFNPGEANAVTLVNLLKESAEAKGIKVVEATALKSADVQSATQAIAAKSDILYAPTDNTVASAIEGMIVAANQAKKPVFGGATSYVEKGAIAGLGFDYYQVGVQTADYVAAILDGQEPGKLDVKVATGSDLVINESAASKLGIQLPSSVVQRATSMQ,not failed
11,TVDRSVAIVGTRAMSHYGKSATSMLAAGIADHHWTIVSGGALGVDTVAHTEALQRQKPTVAVCARGLDAPYPRKNAELLRSIVETGCLVSEYAPGLTPHRHRFLTRNRLVAALSQGTVVVEAAWRSGALNTLSWASALGRVAMAVPGPVTNTGSLGCHERIRNKEAELVCSAEEILALVGTLGEFDPN,failed

# Reference: a protein production outcome set (Wang et al. 2014)
